US20170157165, “APTAMER FOR FGF2 AND USE THEREOF” (RIBOMIC INC., published 2017)

What was measured:
Details in all cases: tags: Peprotech
FGF2 [1] = biological target: T1, FGF2 (Homo sapiens, UniProt P09038 P09038:135-288); assay: inhibition; SPR inhibition of FGF2-FGFR1alpha(IIIc); each 0.1 uM
Description: BIAcore2000 manufactured by BIAcore was used for the measurement. As directed in BIAcore Company's protocol, Protein A (21181, manufactured by PIERCE) was immobilized on a CM5 sensor chip. About 1,000 RU of human FGFR1α (IIIc), R2α (IIIc), R3 (IIIc), R4 (manufactured by R&D Systems) fused with the Fc portion of IgG (manufactured by R&D systems) was each immobilized thereon. As analyte, a mixture of FGF2 (0.1 μM), heparin (0.1 μM) (manufactured by Pfizer) and aptamer (0.15 μM) was flown. Before an inhibitory test, a mixture of FGF2 and heparin was confirmed to bind to 4 kinds of receptors. […] A sensorgram showing that the aptamer shown by aptamer ID 1 inhibits binding of FGF2 and FGFR1α(IIIc), 2α(IIIc), 3(IIIc), 4 is shown in FIG. 2.
In addition, the inhibitory rate against each of the 4 kinds of receptors was determined. The inhibitory rate was determined with the maximum binding amount of the FGF2 and heparin mixture as 0, and the binding amount with an injection buffer alone as 100. The binding amount here means the RU value of the peak top of sensorgram. The inhibitory rate was calculated. […] The inhibitory rate of other aptamers was not more than 50%.
To enhance FGF2-binding activity, stability, drug deliverability and the like, the nucleic acids shown by aptamer IDs 3(1)-3(40), aptamer IDs 4 and 4(1)-4(4), aptamer ID 5 and aptamer ID 6 were chemically synthesized based on the aptamer shown in SEQ ID NO: 3. Here, the aptamer shown by aptamer ID 4 is the aptamer shown by aptamer ID 3(19) wherein one G(M) at the 5′-terminal and one C(M) at the 3′-terminal have been deleted. The aptamer shown by aptamer ID 5 is the aptamer shown by aptamer ID 3(19) wherein one G(M) has been added at the 5′-terminal and one C(M) has been added at the 3′-terminal. The aptamer shown by aptamer ID 6 is the aptamer shown by aptamer ID 3(19) wherein A(M) alone has been added at the 5′-terminal. These nucleic acids were produced by chemical synthesis.

FGF2 [2] = biological target: T1, FGF2; assay: cell_activity; HUVEC proliferation, FGF2 0.58 nM
Description: (§1) Human umbilical vein endothelial cells (HUVEC) were seeded in a 96 well flat bottom plate at 5×10³ cells per well, and cultured overnight using a medium EGM-2 Bullet Kit for endothelial cells (CC-3162 manufactured by Lonza) containing 2% fetal bovine serum and growth factors. Thereafter, the medium was discarded, the cells were washed twice with PBS buffer, and a mixture of the aptamer shown by aptamer ID 3(21) (5, 2.5, 1, 0.5 nM) and FGF2 (final concentration 0.5 nM), dissolved in a medium exclusively for endothelial cells containing 2% fetal bovine serum, was added. After 72 hr, viable cell number was examined using Cell Counting Kit-8. For the measurement of absorbance, a microplate reader (450 nm) was used. One sample was measured at n=3. As a positive control, anti-FGF2 antibody Anti-FGF, basic (Ab-3) Mouse mAb (3H3) (manufactured by Calbiochem) were used. With the OD value per well obtained by the addition of FGF2 alone and culture of the cells for 3 days as inhibitory activity 0%, and that of the cell obtained by FGF2 free culture for 3 days as inhibitory activity 100%, the inhibitory activity of the aptamer was calculated from the OD value per well obtained by culturing with the addition of a mixture of FGF2 and the aptamer. As a result, it was shown that the aptamer shown by aptamer ID 3(21) has a high inhibitory activity against FGF2.
By a method similar to the above except that the 96 well flat bottom plate was changed to a collagen-coated one, the activity of various aptamers was evaluated. The concentration of FGF2 added was 0.58 nM. As a negative control RNA, Macugen (registered trade mark) sequence without addition of PEG, and with C6 modification of the 5′-terminal and idT modification of the 3′-terminal was used.

FGF2 [3] = biological target: T1, FGF2; assay: cell_activity; HUVEC proliferation
Description: as §1
By a method similar to that in Example 5, the inhibitory activity of the aptamers shown by aptamer IDs 8-12 was measured.

FGF2 [4] = biological target: T1, FGF2; assay: cell_activity; HUVEC proliferation, FGF2 0.5 nM
Description: as §1

T1 sequence (P09038 135-288, one chain of several): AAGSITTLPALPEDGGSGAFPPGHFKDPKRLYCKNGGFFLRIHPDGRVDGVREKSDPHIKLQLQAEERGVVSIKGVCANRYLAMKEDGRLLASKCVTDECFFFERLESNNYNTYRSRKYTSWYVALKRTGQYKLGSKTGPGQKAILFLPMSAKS

Binder	activity (FGF2 [1]) [%]	IC50 (FGF2 [3]) [nM]	other results
AGGGAUACUAGGGCAUUAAUGUUACCAGUGUAGUCCC (ssRNA, 2'-F at U9,U17,U22,U29,U31; 2'-OH at G13,G28,G30; all others 2'-OMe; 3' idT) [aptamer ID 6]	93	–	IC50 (FGF2 [2]): 3.1 nM
CGGAUACUAGGGCAUUAAUGUUACCAGUGUAGUCCG (ssRNA, 2'-F at U8,U16,U21,U28,U30; 2'-OH at G12,G27,G29; all others 2'-OMe; 5' NH2; 3' idT) [aptamer ID 8]	–	5.6	–
CCGAUACUAGGGCAUUAAUGUUACCAGUGUAGUCGG (ssRNA, 2'-F at U8,U16,U21,U28,U30; 2'-OH at G12,G27,G29; all others 2'-OMe; 5' NH2; 3' idT) [aptamer ID 9]	–	3.7	–
GGGAUACUAGGGCGUUAACGUUACCAGUGUAGUCCC (ssRNA, 2'-F at U8,U16,U21,U28,U30; 2'-OH at G12,G27,G29; all others 2'-OMe) [aptamer ID 10]	–	4.9	–
GGGAUACUAGGGCCUUAAGGUUACCAGUGUAGUCCC (ssRNA, 2'-F at U8,U16,U21,U28,U30; 2'-OH at G12,G27,G29; all others 2'-OMe) [aptamer ID 11]	–	13	–
GGGAUACUAGGGCAUUUAUGUUACCAGUGUAGUCCC (ssRNA, 2'-F at U8,U16,U21,U28,U30; 2'-OH at G12,G27,G29; all others 2'-OMe) [aptamer ID 12]	–	2.3	–
GGGAUACUAGGGCAUUAAUGUUACCAGUGUAGUCCC (ssRNA, 2'-F at U8,U16,U21,U28,U30; 2'-OH at G12,G27,G29; all others 2'-OMe; 3' idT) [aptamer ID 3(19)]	93	3.4	–
GGGAUACUAGGGCAUUAAUGUUACCAGUGUAGUCCC (ssRNA, 2'-F at U8,U16,U21,U28,U30; 2'-OH at G12,G27,G29; all others 2'-OMe; 5' PEG 40K (GL2-400TS)-C6; 3' idT) [aptamer ID 3(21)]	97	–	IC50 (FGF2 [4]): ~1 nM
